Residue numbers refer to the chain shown, from its start. In names and notes the source's numbering stands.
T1: MBP–FD(T282E), maltose-binding protein-fused phospho-mimic mutant FD (Arabidopsis thaliana, UniProt Q84JK2 2-285, T282E)
T1 construct: FD, bZIP transcription factor, Arabidopsis thaliana; residues 2-285; codon-optimised for E. coli; also called MBP-FD^(2–285 (T282E)); source: E. coli, purified (Ni-NTA, size-exclusion chromatography); not shown: MBP, N-terminal, kept
T1 sequence (looked up): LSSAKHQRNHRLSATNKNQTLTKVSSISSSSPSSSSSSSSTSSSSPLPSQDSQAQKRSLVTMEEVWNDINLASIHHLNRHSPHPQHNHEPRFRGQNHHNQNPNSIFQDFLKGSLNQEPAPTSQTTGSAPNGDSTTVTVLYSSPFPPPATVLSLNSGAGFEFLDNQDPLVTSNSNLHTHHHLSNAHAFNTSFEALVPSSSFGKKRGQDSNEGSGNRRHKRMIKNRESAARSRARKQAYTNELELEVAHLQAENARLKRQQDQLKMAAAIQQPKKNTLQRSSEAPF

B1: GRF7 (14-3-3ν), recombinant (natural protein, Arabidopsis thaliana, UniProt Q96300 1-265, looked up)
chain: MSSSREENVYLAKLAEQAERYEEMVEFMEKVAKTVDTDELTVEERNLLSVAYKNVIGARRASWRIISSIEQKEESRGNDDHVSIIKDYRGKIETELSKICDGILNLLDSHLVPTASLAESKVFYLKMKGDYHRYLAEFKTGAERKEAAESTLVAYKSAQDIALADLAPTHPIRLGLALNFSVFYYEILNSPDRACSLAKQAFDEAISELDTLGEESYKDSTLIMQLLRDNLTLWNSDINDEAGGDEIKEASKHEPEEGKPAETGQ
notes: GRF7 (14-3-3ν), Arabidopsis thaliana; cloned into pMAL-c5X-His or a modified pMAL-c5X vector; also called GRF7-6His; source: E. coli, purified (Ni-NTA, size-exclusion chromatography)
B2: MBP–FDc(T282E), N-terminal MBP-fused, truncated FD (amino acids 215–285) (domain or fragment, Arabidopsis thaliana, UniProt Q84JK2 215-285, looked up)
chain: NRRHKRMIKNRESAARSRARKQAYTNELELEVAHLQAENARLKRQQDQLKMAAAIQQPKKNTLQRSSEAPF
notes: FD, Arabidopsis thaliana; also called MBP-FDc^(215–285 (T282E)); source: E. coli, purified; not shown: MBP, N-terminal, kept
B3: MBP–FDc(T282E) Mu6 (L263A) (domain or fragment, Arabidopsis thaliana, UniProt Q84JK2 215-285, looked up)
chain: B2 chain with L49A
notes: FD, Arabidopsis thaliana; amino acids 215–285; source: E. coli, purified; not shown: MBP, N-terminal, kept
B4: MBP–FDc(T282E) Mu3 (L242A) (domain or fragment, Arabidopsis thaliana, UniProt Q84JK2 215-285, looked up)
chain: B2 chain with L28A
notes: FD, Arabidopsis thaliana; amino acids 215–285; L242A is printed for Mu3 only in the name of the transgene gFD::3HA-3Flag-FD^Mu3_L242A; source: E. coli, purified; not shown: MBP, N-terminal, kept
B5: MBP–FDc(T282E) Mu2 (Y238A,E243A) (domain or fragment, Arabidopsis thaliana, UniProt Q84JK2 215-285, looked up)
chain: B2 chain with Y24A, E29A
notes: as for B3

Legend:
[1] = target: T1, MBP–FD(T282E), maltose-binding …; test: SEC; gel filtration of mixed purified proteins without DNA, fractions analysed on gel; conditions: both partners purified
[2] = target: B1; test: SEC-MALS; MBP–FDc(T282E) or its mutants with GRF7; 25 mM Tris-HCl pH 8.0, 160 mM NaCl, 2% glycerol; Superdex 200; conditions: both partners purified
[3] = target: the molecule itself; test: SEC-MALS; MBP–FDc(T282E) alone at low concentration; 25 mM Tris-HCl pH 8.0, 160 mM NaCl, 2% glycerol; Superdex 200
[4] = target: the molecule itself; test: SEC-MALS; MBP–FDc(T282E) or its mutants with GRF7; 25 mM Tris-HCl pH 8.0, 160 mM NaCl, 2% glycerol; Superdex 200

Row | binding result [2] | Binder | binding result [4] | other results
1 |  | B1 |  | binding result [1]: binds
2 | binds | B2 |  | stoichiometry N [3]: 2
3 | binds | B3 | binds | 
4 |  | B4 |  | stoichiometry N [2]: 1 copy of FDc(T282E) per GRF7 dimer
5 | binds | B5 | binds | 

— paper PMC12711580, “Florigen activation complex forms via multifaceted assembly in Arabidopsis” (Nature, 2025)
